# ± gives the standard deviation of the averaged measurements.
# Tested on: ATP
# Assay: switch fluorescence ratio, 500 uM ATP over buffer (Cy3 cluster intensity, sum of 5 cycles each) (fold (ratio)); higher = stronger signal-on switching upon ATP binding; sequences stand for … in TCGTCGGCAGCGTCAGATGTGTATAAGAGACAGTTTTTTTTTTTTTTTTTTTTTTTTT…TC
# Conditions: aptamer strand: ATP DNA aptamer (quencher-CACCTGGGGGAGTATTGCGGAGGAAGG + anchor), 100 nM annealed; ATP concentration: 500 uM
# Outline: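 Switching-strand clusters labelled with Cy3 on a modified Illumina MiSeq flow-cell were annealed to 100 nM quencher-labelled ATP aptamer, imaged in selection buffer, and re-imaged after 15 min with 500 uM ATP at 22 °C. This was done over five cycles with NaOH stripping and re-annealing in between. The fluorescence ratio is summed target-cycle over summed buffer-cycle Cy3 intensity per cluster, averaged per switch-domain sequence, excluding clusters outside 100-1000 RFU.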
# 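Note: ATP exposure 15 min at 22 °C before imaging.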
sequence,measurement,value
CGCGTTGGCA,switch fluorescence ratio,1.04 ± 0.028
CGCTCACGGT,switch fluorescence ratio,1.066 ± 0.0026
CGCTCGGGTT,switch fluorescence ratio,1.003 ± 0.0025
CGCTCGTTGT,switch fluorescence ratio,0.9559 ± 0.0033
CGCTGACCTT,switch fluorescence ratio,1.2 ± 0.037
CGCTGGGGGA,switch fluorescence ratio,1.055 ± 0.0022
CGCTGGGGTT,switch fluorescence ratio,0.9962 ± 0.0047
CGCTGTGAAG,switch fluorescence ratio,1.02 ± 0.012
CGCTGTGATG,switch fluorescence ratio,1.013 ± 0.0053
CGCTGTTTTT,switch fluorescence ratio,1.02 ± 0.024
CGCTTATCCT,switch fluorescence ratio,1.1 ± 0.038
CGCTTCTAGG,switch fluorescence ratio,1.04 ± 0.024
CGCTTGAGA,switch fluorescence ratio,1.04 ± 0.026
CGCTTGGCTG,switch fluorescence ratio,0.981 ± 0.051
CGCTTGGTAC,switch fluorescence ratio,3.39 ± 0.079
CGCTTTAATA,switch fluorescence ratio,1.07 ± 0.019
CGGAAAATTT,switch fluorescence ratio,1.01 ± 0.075
CGGAAAGTGT,switch fluorescence ratio,0.996 ± 0.024
CGGAAGCATG,switch fluorescence ratio,1.13 ± 0.047
CGGAAGCGTG,switch fluorescence ratio,0.984 ± 0.016
CGGAAGCTCT,switch fluorescence ratio,1.036 ± 0.0028
CGGAAGGGCC,switch fluorescence ratio,0.995 ± 0.03
CGGAAGTGCG,switch fluorescence ratio,1.0061 ± 6.8e-05
CGGAATGGTT,switch fluorescence ratio,1.04 ± 0.036
CGGACCGGGG,switch fluorescence ratio,0.996 ± 0.041
CGGACCTAGT,switch fluorescence ratio,0.9689 ± 0.0042
CGGACGGCTC,switch fluorescence ratio,1.093 ± 0.01
CGGACTGGTT,switch fluorescence ratio,1.005 ± 0.0057
CGGACTTATT,switch fluorescence ratio,0.9686 ± 0.0054
CGGAGAATAG,switch fluorescence ratio,1.234 ± 0.012
CGGAGACCGT,switch fluorescence ratio,1 ± 0.022
CGGAGACGTG,switch fluorescence ratio,1 ± 0.025
CGGAGAGGGT,switch fluorescence ratio,1 ± 0.029
CGGAGAGTAG,switch fluorescence ratio,1.03 ± 0.018
CGGAGGAATT,switch fluorescence ratio,1.2 ± 0.11
CGGAGGATGG,switch fluorescence ratio,0.9867 ± 0.0084
CGGAGGCAAG,switch fluorescence ratio,1.14 ± 0.045
CGGAGGGGAT,switch fluorescence ratio,1.062 ± 0.005
CGGAGGGGCC,switch fluorescence ratio,1.02 ± 0.033
CGGAGTCGGG,switch fluorescence ratio,1.04 ± 0.052
CGGAGTTGCG,switch fluorescence ratio,0.98 ± 0.013
CGGATAATTG,switch fluorescence ratio,0.9886 ± 0.0054
CGGATATGGA,switch fluorescence ratio,0.988 ± 0.058
CGGATATGGC,switch fluorescence ratio,1.03 ± 0.1
CGGATATTGC,switch fluorescence ratio,1 ± 0.059
CGGATCCAGG,switch fluorescence ratio,1.35 ± 0.042
CGGATCGATT,switch fluorescence ratio,0.9907 ± 0.0018
CGGATGAGTG,switch fluorescence ratio,0.953 ± 0.1
CGGATGGGGC,switch fluorescence ratio,1 ± 0.042
CGGATTAGGT,switch fluorescence ratio,0.993 ± 0.028
CGGATTCGTA,switch fluorescence ratio,0.986 ± 0.036
CGGATTGTAG,switch fluorescence ratio,1.03 ± 0.04
CGGCAAGTGG,switch fluorescence ratio,1.05 ± 0.031
CGGCAATCCT,switch fluorescence ratio,3.99 ± 0.15
CGGCAGGGGG,switch fluorescence ratio,1.06 ± 0.1
CGGCATGCGG,switch fluorescence ratio,1.022 ± 0.0035
CGGCATGGAG,switch fluorescence ratio,0.996 ± 0.025
CGGCCAGCTG,switch fluorescence ratio,1.03 ± 0.03
CGGCCCACGC,switch fluorescence ratio,1.04 ± 0.082
CGGCCCAGAA,switch fluorescence ratio,1 ± 0.015
CGGCCGTATA,switch fluorescence ratio,0.998 ± 0.013
CGGCCTAAGG,switch fluorescence ratio,1.01 ± 0.016
CGGCGAGAAC,switch fluorescence ratio,1.045 ± 0.0023
CGGCGCGGAT,switch fluorescence ratio,1.02 ± 0.04
CGGCGGCACC,switch fluorescence ratio,1.0893 ± 0.00071
CGGCGGCAG,switch fluorescence ratio,1.03 ± 0.064
CGGCGGGAAG,switch fluorescence ratio,1 ± 0.023
CGGCGGGAGC,switch fluorescence ratio,1.05 ± 0.038
CGGCGGGCTG,switch fluorescence ratio,0.989 ± 0.062
CGGCGGGGTG,switch fluorescence ratio,1.04 ± 0.055
CGGCGGGTCT,switch fluorescence ratio,0.98 ± 0.052
CGGCGGGTGG,switch fluorescence ratio,1.02 ± 0.041
CGGCGTAGGG,switch fluorescence ratio,1.12 ± 0.15
CGGCGTTATG,switch fluorescence ratio,0.988 ± 0.014
CGGCTAAGGG,switch fluorescence ratio,0.981 ± 0.014
CGGCTACTTT,switch fluorescence ratio,1.03 ± 0.038
CGGCTATGTG,switch fluorescence ratio,0.985 ± 0.027
CGGCTATTAA,switch fluorescence ratio,1.044 ± 0.0086
CGGCTGCGTG,switch fluorescence ratio,0.998 ± 0.0073
CGGCTGGCGA,switch fluorescence ratio,1.01 ± 0.059
CGGCTGGCTG,switch fluorescence ratio,1.04 ± 0.011
CGGCTGGTCA,switch fluorescence ratio,0.984 ± 0.021
CGGCTGTCAC,switch fluorescence ratio,1.03 ± 0.025
CGGCTGTGGT,switch fluorescence ratio,1.01 ± 0.03
CGGCTTGGT,switch fluorescence ratio,1.02 ± 0.015
CGGCTTGTG,switch fluorescence ratio,0.99726 ± 0.00036
CGGGAAAACG,switch fluorescence ratio,0.995 ± 0.012
CGGGAAATGG,switch fluorescence ratio,1.007 ± 0.0064
CGGGAACGGA,switch fluorescence ratio,0.984 ± 0.033
CGGGAACGGT,switch fluorescence ratio,1.01 ± 0.026
CGGGAACTTT,switch fluorescence ratio,1.02 ± 0.065
CGGGAAGCTT,switch fluorescence ratio,1 ± 0.082
CGGGAAGGGC,switch fluorescence ratio,1.19 ± 0.32
CGGGAAGTTC,switch fluorescence ratio,1.03 ± 0.016
CGGGAATCGT,switch fluorescence ratio,1 ± 0.05
CGGGAATGGC,switch fluorescence ratio,1.06 ± 0.079
CGGGAATTTT,switch fluorescence ratio,1 ± 0.013
CGGGACATAG,switch fluorescence ratio,0.964 ± 0.026
CGGGACCGGA,switch fluorescence ratio,1.02 ± 0.073
CGGGACCTGG,switch fluorescence ratio,0.958 ± 0.077
CGGGACGGAG,switch fluorescence ratio,0.997 ± 0.11
CGGGAGAAAG,switch fluorescence ratio,1 ± 0.022
CGGGAGATTA,switch fluorescence ratio,0.9872 ± 0.0084
CGGGAGGGAC,switch fluorescence ratio,0.994 ± 0.057
CGGGAGGGAG,switch fluorescence ratio,1 ± 0.05
CGGGAGGTAT,switch fluorescence ratio,1 ± 0.012
CGGGATCTGT,switch fluorescence ratio,1.01 ± 0.024
CGGGATGTCA,switch fluorescence ratio,0.955 ± 0.038
CGGGCAACGT,switch fluorescence ratio,1.02 ± 0.037
CGGGCAAGGT,switch fluorescence ratio,1.038 ± 0.01
CGGGCATTGT,switch fluorescence ratio,1.01 ± 0.051
CGGGCCTTTT,switch fluorescence ratio,1 ± 0.023
CGGGCGAGGA,switch fluorescence ratio,0.989 ± 0.029
CGGGCGCAGT,switch fluorescence ratio,1.02 ± 0.043
CGGGCGGGAC,switch fluorescence ratio,1.59 ± 0.021
CGGGCGGGGG,switch fluorescence ratio,1.06 ± 0.12
CGGGCTCAGC,switch fluorescence ratio,1.008 ± 0.0094
CGGGCTTATT,switch fluorescence ratio,0.988 ± 0.02
CGGGCTTTTT,switch fluorescence ratio,1.016 ± 0.0065
CGGGGAAATG,switch fluorescence ratio,0.997 ± 0.023
CGGGGAAGTT,switch fluorescence ratio,0.9847 ± 0.0079
CGGGGACGAC,switch fluorescence ratio,1.63 ± 0.72
CGGGGACTGG,switch fluorescence ratio,0.9726 ± 0.0072
CGGGGAGGTG,switch fluorescence ratio,1.1 ± 0.087
CGGGGAGTCG,switch fluorescence ratio,0.945 ± 0.023
CGGGGATGGC,switch fluorescence ratio,0.979 ± 0.011
CGGGGATGGG,switch fluorescence ratio,0.992 ± 0.022
CGGGGATTAG,switch fluorescence ratio,0.994 ± 0.017
CGGGGATTGC,switch fluorescence ratio,1.01 ± 0.016
CGGGGCCTTT,switch fluorescence ratio,1.02 ± 0.037
CGGGGCGGAT,switch fluorescence ratio,1.04 ± 0.016
CGGGGCTTAT,switch fluorescence ratio,0.9909 ± 0.0014
CGGGGGAAGC,switch fluorescence ratio,1.02 ± 0.041
CGGGGGACGG,switch fluorescence ratio,0.982 ± 0.029
CGGGGGAGAC,switch fluorescence ratio,0.971 ± 0.019
CGGGGGAGCT,switch fluorescence ratio,1.02 ± 0.029
CGGGGGATGC,switch fluorescence ratio,1.05 ± 0.036
CGGGGGATTA,switch fluorescence ratio,1.02 ± 0.049
CGGGGGCAGA,switch fluorescence ratio,1 ± 0.023
CGGGGGCCCT,switch fluorescence ratio,1.01 ± 0.034
CGGGGGCGCT,switch fluorescence ratio,1.02 ± 0.013
CGGGGGCTGC,switch fluorescence ratio,1.13 ± 0.1
CGGGGGGAGC,switch fluorescence ratio,1.01 ± 0.056
CGGGGGGATG,switch fluorescence ratio,1.01 ± 0.033
CGGGGGGATT,switch fluorescence ratio,0.997 ± 0.012
CGGGGGGCAT,switch fluorescence ratio,0.994 ± 0.022
CGGGGGGCCT,switch fluorescence ratio,1.01 ± 0.028
CGGGGGGGAA,switch fluorescence ratio,0.999 ± 0.03
CGGGGGGGG,switch fluorescence ratio,1 ± 0.059
CGGGGGGTCA,switch fluorescence ratio,1.01 ± 0.018
CGGGGGGTGC,switch fluorescence ratio,1.01 ± 0.082
CGGGGGTGTT,switch fluorescence ratio,0.998 ± 0.023
CGGGGGTTAC,switch fluorescence ratio,1.4 ± 0.56
